Biological target: T1, amphyphisin SH3 (AMPH_HUMAN), P49418
T1 chain: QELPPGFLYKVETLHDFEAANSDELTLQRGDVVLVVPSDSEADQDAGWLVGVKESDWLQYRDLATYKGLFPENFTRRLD
Experiment: SPOT array

Binder	normalised SPOT signal, Boehringer light units (BLU); mean over the file's lines of this peptide
SELRLSRPPKAYGS [Q9H4S4 61-74]	36.1
TPAPPLRPPDSLSR [Q8WX45 160-174]	446
TPTVPLKPPPPLTL [Q9HD71 354-368]	39.3
TPRKILRPTKETSE [Q9BXX2 182-195]	173
TLLFPKRPFSWIRH [Q969I6 440-453]	123
TNFPPPRPPPPSRP [AAH28697 239-253]	1610
TNAGIRRPEKPPYS [Q12946 14-27]	70.3
TLLEPRRPRSESVT [Q9UPN7 147-160]	29.7
TLKRPKRPPLKEFF [Q96NX2 23-37]	2720
TPPLPRRPRKGSSE [Q9H0X6 10-23]	2900
TKIMFNRPKKKNAI [O75521 116-129]	80.4
TPAPPLRPPDSPSR [O75949 160-174]	280
TNSRLARPTRLSLG [P35568 851-864]	1760
SEMLIKRPSKVKTI [Q8WV92 138-151]	62.6
TKIPFKRPRGHNFS [Q9HAS2 64-77]	53.7
TPGEFRRPRLASFG [Q14678 130-143]	44.3
TMSSIYRPLKPRTN [Q9H296 344-357]	97.2
TPLSPLKPPRMDTA [Q9H898 117-131]	334
TLQAPRRPPTPGPD [Q9H6K5 343-356]	35.3
TPNPLERPIKMGWL [P42331 33-46]	94
TPLSLKRPPPYDAV [Q9P242 471-484]	19.2

Binder	normalised SPOT signal, Boehringer light units (BLU); mean over the file's lines of this peptide
TLKRPKRPPLREFF [Q9Y2E4 59-73]	3950
TPRPLARPARPNLS [Q9Y6C2 143-156]	3020
TPVSLGRPERYRRH [Q9GZM7 384-397]	644
TPPQPKRPRPGVSK [Q9BR39 363-376]	343
SEHNPKRPVTSEQG [O75598 106-119]	33.3
TPPIPSKPPGGFGK [Q9H462 843-857]	41.7
TLVWPHRPARPRPV [Q9BXL6 817-830]	613
TPRGPRRPSGPAEL [Q9BUY9 649-662]	31.6
TLLGPGRPYRAIDF [P40126 196-209]	184
TLLALQRPQRLHHH [Q9NYK9 18-31]	3250
TPPAFIRPTRKLDD [Q9UPV7 127-140]	173
TPPDPPRPKRRSHS [Q9ULT1 709-722]	2330
TLLSPPRPGRLPDL [O95206 1031-1044]	443
TKDSPGKPPMAPPS [BAC03441 170-184]	90.4
TNPELRRPRSEPSN [Q9Y6Y1 1215-1228]	34.7
TKTPPPRPPLPTQQ [Q9NSG0 388-402]	708
TPSELERPSRMVSR [Q14068 72-85]	772
TPKPPKRPRLQRPA [Q9NWH1 363-376]	381
TPASPRRPPALRSQ [Q9BUY9 390-404]	843
TPDLLPRPPRLLLL [Q9NRA0 137-150]	830
TNFAFRRPSFESLK [P43652 501-514]	45.2

The binders below were run against endophilin SH3 (SH3G2_HUMAN), Q99962 (assay: SPOT array).

Binder	normalised SPOT signal, Boehringer light units (BLU); mean over the file's lines of this peptide
SELRLSRPPKAYGS [Q9H4S4 61-74]	13.3
TPAPPLRPPDSLSR [Q8WX45 160-174]	647
TPTVPLKPPPPLTL [Q9HD71 354-368]	904
TPRKILRPTKETSE [Q9BXX2 182-195]	30.9
TLLFPKRPFSWIRH [Q969I6 440-453]	1590
TNFPPPRPPPPSRP [AAH28697 239-253]	11200
TNAGIRRPEKPPYS [Q12946 14-27]	113
TLLEPRRPRSESVT [Q9UPN7 147-160]	113
TLKRPKRPPLKEFF [Q96NX2 23-37]	15000
TPPLPRRPRKGSSE [Q9H0X6 10-23]	2360
TKIMFNRPKKKNAI [O75521 116-129]	112
TPAPPLRPPDSPSR [O75949 160-174]	2060
TNSRLARPTRLSLG [P35568 851-864]	1890
SEMLIKRPSKVKTI [Q8WV92 138-151]	48.1
TKIPFKRPRGHNFS [Q9HAS2 64-77]	22.1
TPGEFRRPRLASFG [Q14678 130-143]	720
TMSSIYRPLKPRTN [Q9H296 344-357]	120
TPLSPLKPPRMDTA [Q9H898 117-131]	56.4
TLQAPRRPPTPGPD [Q9H6K5 343-356]	1890
TPNPLERPIKMGWL [P42331 33-46]	59.1
TPLSLKRPPPYDAV [Q9P242 471-484]	67.5

Binder	normalised SPOT signal, Boehringer light units (BLU); mean over the file's lines of this peptide
TLKRPKRPPLREFF [Q9Y2E4 59-73]	24900
TPRPLARPARPNLS [Q9Y6C2 143-156]	610
TPVSLGRPERYRRH [Q9GZM7 384-397]	398
TPPQPKRPRPGVSK [Q9BR39 363-376]	253
SEHNPKRPVTSEQG [O75598 106-119]	19.4
TPPIPSKPPGGFGK [Q9H462 843-857]	995
TLVWPHRPARPRPV [Q9BXL6 817-830]	2240
TPRGPRRPSGPAEL [Q9BUY9 649-662]	30
TLLGPGRPYRAIDF [P40126 196-209]	488
TLLALQRPQRLHHH [Q9NYK9 18-31]	877
TPPAFIRPTRKLDD [Q9UPV7 127-140]	146
TPPDPPRPKRRSHS [Q9ULT1 709-722]	202
TLLSPPRPGRLPDL [O95206 1031-1044]	192
TKDSPGKPPMAPPS [BAC03441 170-184]	80.7
TNPELRRPRSEPSN [Q9Y6Y1 1215-1228]	41.2
TKTPPPRPPLPTQQ [Q9NSG0 388-402]	13500
TPSELERPSRMVSR [Q14068 72-85]	29
TPKPPKRPRLQRPA [Q9NWH1 363-376]	8220
TPASPRRPPALRSQ [Q9BUY9 390-404]	6640
TPDLLPRPPRLLLL [Q9NRA0 137-150]	94.4
TNFAFRRPSFESLK [P43652 501-514]	414

Reference: publication PMC314469, “Protein Interaction Networks by Proteome Peptide Scanning” (PLoS Biology, 2004)
